The results in this text go back to US7799901B2, “Modulators of the function of FAS receptors and other proteins” (Yeda Research and Development Co. Ltd., priority 1995, dated 2010).

One assay concerns the target T1, MORT-1 (Homo sapiens, UniProt Q13158, G32V).
T1 sequence (Q13158 with tags, fused parts or gaps G32V): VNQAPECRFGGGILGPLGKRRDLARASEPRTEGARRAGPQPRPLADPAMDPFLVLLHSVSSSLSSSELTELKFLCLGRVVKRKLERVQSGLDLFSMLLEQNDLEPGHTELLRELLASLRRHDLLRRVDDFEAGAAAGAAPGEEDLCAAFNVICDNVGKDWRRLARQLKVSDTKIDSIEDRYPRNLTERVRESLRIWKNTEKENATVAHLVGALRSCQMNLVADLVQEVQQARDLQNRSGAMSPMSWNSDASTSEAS
The assay is described as follows: Two-hybrid β-galactosidase filter assay (FIG. 5), binding to MORT-1. Set-up: the full-length MORT-1 cDNA was used (MORT 1); expressed in transfected cells; host or cells: SFY526 yeast. The note with it: two hybrid test. The method, then:
The yeast two-hybrid test was further applied to evaluate the specificity of binding of MACH to MORT-1, in particular, to define the region in MORT-1 to which MACH binds, as well as to determine which of the MACH ORFs interacts with MORT-1, the procedures being as set forth herein above in Examples 1 and 2. Briefly, various MORT-1 and MACH constructs were prepared for testing the interaction of the proteins encoded by the Gal4 DNA-binding domain and activation domain constructs within transfected SFY526 yeast cells as assessed by the β-galactosidase expression filter assay. The DNA-binding domain constructs were prepared in pGBT9 vectors and the activation domain constructs were prepared in pGAD-GM vectors. For the activation domain constructs, the full-length MACH cDNA was used (MACH), as was a construct encoding only the ORF-B (MACH B) region. Control activation domain constructs were those containing the full-length MORT-1 coding sequence (MORT 1, positive control) and those having no inserts, i.e., “empty” vectors (pGAD-GM). For the DNA-binding domain constructs, the full-length MORT-1 cDNA was used (MORT 1), as were constructs encoding only the MORT-1 […] (MORT-1DD aa 130-245). […] In the assay, the development of color was determined, where the greater the color development, the greater the interaction between the constructs encoded by the DNA-binding domain and activation domain; Color development was depicted by symbols, where “+++” and “+” indicate the development of a strong color within 30 and 90 min. of the assay, respectively, and “−−−” indicates the lack of development of color within 24 hrs. of the assay. […]
In FIG. 5, there is shown the results of the interaction of MORT-1 and MACH within transfected yeast cells. […] Their interaction was assessed by a β-galactosidase expression filter assay as described in Boldin et al (1995b). […]

In assay [1] the test system is human embryonic kidney 293-EBNA cells. The assay is described as follows: Cell death on overexpression of MACH isoforms in 293-EBNA cells. It counts as cell-based. The following applies: β-galactosidase-expressing cells with apoptopic morphology, 20 h after transfection. The method, then: To explore the involvement of MACH in cell-death induction, the effect of overexpression of various MACH isoforms on cell viability was examined. The test was performed by transfecting MACH expression vectors together with a β-galactosidase expression vector as a transfection marker into human embryonic kidney 293-EBNA cells and breast carcinoma MCF7 cells.
In brief, 293-EBNA cells, MCF7 human breast carcinoma cells and HeLa HtTA-1 cells were grown in Dulbecco's modified Eagle's minimal essential medium supplemented with 10% fetal calf serum, nonessential amino acids, 100 U/ml penicillin and 100 μg/ml streptomycin. Cell tissue culture dishes (5×10^5 293-EBNA cells, 3×10^5 s MCF7 cells or 3×10^5 HeLa cells in 6-cm dishes) were transiently transfected, using the calcium phosphate precipitation method, with the cDNAs of the indicated proteins together with the β-galactosidase expression vector. In the experiments presented in FIGS. 14A-D and 15, each dish was transfected with 3.5 μg of the indicated MACH construct and 1.5 μg of pSV-β-gal. In the experiments presented in FIGS. 16A-D and 17-19, each dish was transfected with 2.5 μg of the indicated MACH or MORT1 construct (or, as control, empty vector) and 1.5 μg of pSV-β-gal. The cells were rinsed 6 to 10 h after transfection. The 293-EBNA and MCF7 cells were incubated for a further 18 h without additional treatment. The HeLa cells were incubated for 26 h after transfection and-then for 5 h in the presence of either anti-Fas.APO1 antibody (CH11, 0.5 μg/ml) or TNF (100 ng/ml), together with cycloheximide (10 μg/ml). The extent of cell death at the end of the incubation periods was assessed by determination of β-galactosidase expression, as described by Kumar et al, 1994.
In particular, FIGS. 14A-D show the morphology of human embryonic kidney 293-EBNA cells transiently expressing the indicated MACH isoforms. The arrows (FIG. 14B) point to apoptopic cells. Photographs were taken 26 h after transfection. […] Data are from three independent experiments with the 293-EBNA cells and two independent experiments with the MCF7 cells.

On to “MACHα1: MACH isoform, cDNA SEQ ID NO: 14, amino acid SEQ ID NO: 7; contains CED3/ICE homology region”, for which the “binding to MORT-1 in transfected yeast” value in the assay with MORT-1 is “scored clearly positive”. For the same molecule, the “cell death of transfected 293-EBNA cells” value in assay [1] is recorded as “massive cell death”.

B1: MACHβ1: MACH isoform, cDNA SEQ ID NO: 4, amino acid SEQ ID NO: 5; lacks the CED3/ICE homology region (protein)
chain: MDFSRNLYDIGEQLDSEDLASLKFLSLDYIPQRKQEPIKDALMLFQRLQEKRMLEESNLSFLKELLFRINRLDLLITYLNTRKEEMERELQTPGRAQISAYRVMLYQISEEVSRSELRSFKFLLQEEISKCKLDDDMNLLDIFIEMEKRVILGEGKLDILKRVCAQINKSLLKIINDYEEFSKERSSSLEGSPDEFSNDFGQSLPNEKQTSGILSDHQQSQFCKSTGESAQTSQH
B1: the “binding to MORT-1 in transfected yeast” value with MORT-1 is listed as “binds”. In addition, the “cell death of transfected 293-EBNA cells” value in assay [1] is on record as “some slight cell death”.

B2: MACHα1 (C360S): MACHα1 mutant in which the catalytic cysteine Cys360 is replaced by Ser (protein)
chain: MDFSRNLYDIGEQLDSEDLASLKFLSLDYIPQRKQEPIKDALMLFQRLQEKRMLEESNLSFLKELLFRINRLDLLITYLNTRKEEMERELQTPGRAQISAYRVMLYQISEEVSRSELRSFKFLLQEEISKCKLDDDMNLLDIFIEMEKRVILGEGKLDILKRVCAQINKSLLKIINDYEEFSKERSSSLEGSPDEFSNGEELCGVMTISDSPREQDSESQTLDKVYQMKSKPRGYCLIINNHNFAKAREKVPKLHSIRDRNGTHLDAGALTTTFEELHFEIKPHDDCTVEQIYEILKIYQLMDHSNMDCFICCILSHGDKGIIYGTDGQEAPIYELTSQFTGLKCPSLAGKPKVFFIQASQGDNYQKGIPVETDSEEQPYLEMDLSSPQTRYIPDEADFLLGMATVNNCVSYRNPAEGTWYIQSLCQSLRERCPRGDDILTILTEVNYEVSNKDDKKNMGKQMPQPTFTLRKKLVFPSD
As to B2, the “binding to MORT-1 in transfected yeast” value with MORT-1 is recorded as “bound”. Also, in assay [1], the “cell death of transfected 293-EBNA cells” value is on record as “No death”.
